Where a chain is given by its changes, count along the chain named. Names and notes keep the numbering of the source.
T1: human FcγRIIb extracellular domain, C-terminal His-tag (human, UniProt P31994 43-217)
T1 construct: also called FcgRIIb; not shown: His-tag added to the C-terminus
T1 sequence: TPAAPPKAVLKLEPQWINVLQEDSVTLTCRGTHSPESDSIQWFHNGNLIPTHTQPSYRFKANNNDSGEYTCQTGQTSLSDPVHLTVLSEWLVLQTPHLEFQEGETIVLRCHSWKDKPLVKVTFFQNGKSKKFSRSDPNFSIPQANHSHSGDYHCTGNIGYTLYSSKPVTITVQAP

T2: human FcγRIIaH extracellular domain, C-terminal His-tag (human, UniProt P12318 34-217)
T2 construct: also called human FcγRIIa (type H); FcgRIIaH; not shown: His-tag added to the C-terminus
T2 sequence: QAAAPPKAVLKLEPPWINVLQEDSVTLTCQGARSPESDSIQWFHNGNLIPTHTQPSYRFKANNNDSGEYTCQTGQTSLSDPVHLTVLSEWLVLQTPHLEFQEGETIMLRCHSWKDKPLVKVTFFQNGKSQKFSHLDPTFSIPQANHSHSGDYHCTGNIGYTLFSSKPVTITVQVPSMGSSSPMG

T3: human FcγRIIaR extracellular domain, C-terminal His-tag (human, UniProt P12318 34-217)
T3 construct: also called human FcγRIIa (type R); FcgRIIaR; not shown: His-tag added to the C-terminus
T3 chain: T2 sequence with H134R

B1: MS103240H795-TT30/M103202L1045-SK1 (antibody, human IgG1, kappa)
heavy: QVQLVESGGGLVQPGGSLRLSCAVSGIDLSHDDISWVRQAPGKGLEWVSIISYAGSTYYASWAKGRLTISKDTSKNQVVLTMTNMDPVDTATYYCARGVPAYSHGGDLWGQGTLVTVSSASTKGPSVFPLAPSSKSTSGGTAALGCLVKDYFPEPVTVSWNSGALTSGVHTFPAVLQSSGLYSLSSVVTVPSSSLGTQTYICNVNHKPSNTKVDKKVEPKSCDKTHTCPPCPAPELLGGDSVFLFPPKPKDVLMISRTPEVTCVVIDVAHEDPEVKFNWYVDGVEVHNAKTKPREEQYNSTYRVVSVLPVLHRDWLNGKEYKCKVSNKALPKPIEKTISKAKGQRREPQVYTLPPSREEMTKNQVSLTCLVKGFYPSDIAVEWESNGQPENNYKTTPPVLDSDGSFFLYSKLTVDKSRWQQGNVFSCSVMHEALHNHYTQKSLSLSP
light: DIVMTQSPATLSLSPGERATLSCTTSQSVYHENWLSWFQQKPGQPPKLLIYWASTLAYGVPSRFSGSGSGTDFTLTISSLQPEDAATYYCAGGYGGGRYAFGQGTKVEIKRTVAAPSVFIFPPSDEQLKSGTASVVCLLNNFYPREAKVQWKVDNALQSGNSQESVTEQDSKDSTYSLSSTLTLSKADYEKHKVYACEVTHQGLSSPVTKSFNRGEC
notes: CH = SG1 with P238D/T250V/V264I/S267A/T307P/Q311R/A330K/P343R (EU numbering)
B2: MS103240H795-TT35/M103202L1045-SK1 (antibody, human IgG1, kappa)
heavy: B1 heavy with L236Y, R345P, D415K
light: B1 light
notes: CH = SG1 with L234Y/P238D/T250V/V264I/S267A/T307P/Q311R/A330K/D413K (EU numbering)
B3: MS103240H795-TT33/M103202L1045-SK1 (antibody, human IgG1, kappa)
heavy: B1 heavy with L236Y, A269S, R345P, D415K
light: B1 light
notes: CH = SG1 with L234Y/P238D/T250V/V264I/T307P/Q311R/A330K/D413K (EU numbering)
B4: MS103240H795-TT32/M103202L1045-SK1 (antibody, human IgG1, kappa)
heavy: B1 heavy with L236Y, A269S
light: B1 light
notes: CH = SG1 with L234Y/P238D/T250V/V264I/T307P/Q311R/A330K/P343R (EU numbering)
B5: MS103240H795-TT34/M103202L1045-SK1 (antibody, human IgG1, kappa)
heavy: B1 heavy with L236Y
light: B1 light
notes: CH = SG1 with L234Y/P238D/T250V/V264I/S267A/T307P/Q311R/A330K/P343R (EU numbering)
B6: MS103240H795-TT31/M103202L1045-SK1 (antibody, human IgG1, kappa)
heavy: B1 heavy with R345P, D415K
light: B1 light
notes: CH = SG1 with P238D/T250V/V264I/S267A/T307P/Q311R/A330K/D413K (EU numbering)

molecular target: T4, human FcγRIIIaV extracellular domain, C-terminal His-tag (human, UniProt P08637 17-208); experiment: SPR (BIACORE), antibody captured, soluble FcgR as analyte, 25C
T4 construct: also called FcgRIIIaV; not shown: His-tag added to the C-terminus
Method: (§1) The kinetic analysis of interactions between these antibodies and FcγR was carried out using BIACORE® T200 or BIACORE® 4000 (GE Healthcare). HBS-EP+ (GE Healthcare) was used as the running buffer, and the measurement temperature was set to 25° C. A chip produced by immobilizing Protein A. Protein A/G or mouse anti-human IgG kappa light chain (BD Biosciences) onto a Series S Sensor Chip CM4 or CM5 (GE Healthcare) by the amine-coupling method was used. […] After the measurement, the antibody captured on the chip was washed off by allowing reaction with 10 mM glycine-HCl, pH1.5 and 25 mM NaOH so that the chip was regenerated and used repeatedly. The sensorgrams obtained as measurement results were analyzed by the 1:1 Langmuir binding model using the BIACORE® Evaluation Software to calculate the binding rate constant ka (L/mol/s) and dissociation rate constant kd (l/s), and the dissociation constant KD (mol/L) was calculated from these values. […] Regarding such interactions, KD values were calculated using the following 1:1 binding model described in BIACORE® T100 Software Handbook BR1006-48 Edition AE.
(§2) Human FcγRIIb-enhanced Fc variants with anti-myostatin variable region were constructed and their affinity for human FcγRs was evaluated. […] In addition, substitutions (Q311R/D413K or […]) were also introduced. The variants were expressed using M103202L1045-SK1 as light chain and their affinity to human FcγRs was analyzed according to the method shown in Example 34.

T4 sequence (P08637 17-208 F176V): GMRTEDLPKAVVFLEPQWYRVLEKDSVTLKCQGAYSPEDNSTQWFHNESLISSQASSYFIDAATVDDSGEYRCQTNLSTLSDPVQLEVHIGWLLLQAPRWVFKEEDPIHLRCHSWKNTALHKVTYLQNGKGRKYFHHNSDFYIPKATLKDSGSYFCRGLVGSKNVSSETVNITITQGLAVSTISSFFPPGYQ

Row | Kd [µM] | Binder
1 | 66 | B1
2 | 180 | B2
3 | 440 | B3
4 | 110 | B4
5 | 96 | B5
6 | 290 | B6

molecular target: T1, human FcγRIIb extracellular domain, …; experiment: as above
Method: as §1, §2

Row | Kd [µM] | Binder
7 | 0.57 | B1
8 | 0.43 | B2
9 | 0.36 | B3
10 | 0.4 | B4
11 | 0.49 | B5
12 | 0.56 | B6

molecular target: T2, human FcγRIIaH extracellular domain, …; experiment: as above
Method: as §1, §2

Row | Kd [µM] | Binder
13 | 150 | B1
14 | 25 | B2
15 | 42 | B3
16 | 50 | B4
17 | 22 | B5
18 | 110 | B6

Molecular target: T3, human FcγRIIaR extracellular domain, …
Experiment: as above
Method: as §1, §2

Row | Kd [µM] | Binder
19 | 14 | B1
20 | 9 | B2
21 | 12 | B3
22 | 12 | B4
23 | 8.9 | B5
24 | 19 | B6

molecular target: T4, human FcγRIIIaV extracellular domain, …; experiment: SPR; KD of SG1 divided by KD of variant;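 note: relative to parent M103205H795-SG1 carrying the SG1 human heavy chain constant region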
Method: as §1, §2

Row | KD fold (SG1 = 1) [fold] | Binder
25 | 0.012 | B1
26 | 0.004 | B2
27 | 0.002 | B3
28 | 0.007 | B4
29 | 0.008 | B5
30 | 0.003 | B6

molecular target: T1, human FcγRIIb extracellular domain, …; experiment: SPR; KD of SG1 divided by KD of variant;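 note: relative to parent M103205H795-SG1 carrying the SG1 human heavy chain constant region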
Method: as §1, §2

Row | KD fold (SG1 = 1) [fold] | Binder
31 | 10.2 | B1
32 | 13.5 | B2
33 | 16.1 | B3
34 | 14.5 | B4
35 | 11.8 | B5
36 | 10.4 | B6

molecular target: T2, human FcγRIIaH extracellular domain, …; experiment: SPR; KD of SG1 divided by KD of variant;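 note: relative to parent M103205H795-SG1 carrying the SG1 human heavy chain constant region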
Method: as §1, §2

Row | KD fold (SG1 = 1) [fold] | Binder
37 | 0.005 | B1
38 | 0.03 | B2
39 | 0.018 | B3
40 | 0.015 | B4
41 | 0.034 | B5
42 | 0.007 | B6

Molecular target: T3, human FcγRIIaR extracellular domain, …
Experiment: SPR; KD of SG1 divided by KD of variant;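 note: relative to parent M103205H795-SG1 carrying the SG1 human heavy chain constant region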
Method: as §1, §2

Row | KD fold (SG1 = 1) [fold] | Binder
43 | 0.08 | B1
44 | 0.12 | B2
45 | 0.09 | B3
46 | 0.09 | B4
47 | 0.12 | B5
48 | 0.06 | B6
